This passage reports IL-6 secreted by FS-4 fibroblasts (ng/ml) results from patent US20030204066A1.

The experiment addresses human tumor necrosis factor-α (TNFα) (human) (UniProt P01375). As to the kind of experiment: cell-based or functional assay.

Sequence of human tumor necrosis factor-α (TNFα) (human) (P01375 77-233): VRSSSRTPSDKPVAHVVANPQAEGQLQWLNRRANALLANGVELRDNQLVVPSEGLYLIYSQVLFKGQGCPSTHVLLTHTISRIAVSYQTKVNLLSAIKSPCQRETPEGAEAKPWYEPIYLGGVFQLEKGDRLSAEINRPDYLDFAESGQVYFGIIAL

B1: chimeric mouse/human IgG1 anti-platelet mAb (7E3) (antibody, INN chains, looked up, V domains shown)
VH: EVQLQQSGTVLARPGASVKMSCEASGYTFTNYWMHWVKQRPGQGLEWIGAIYPGNSDTSYIQKFKGKAKLTAVTSTTSVYMELSSLTNEDSAVYYCTLYDGYYVFAYWGQGTLVTVSA
VL: EIVLTQSPVTLSVTPGDSVSLSCRASRDISNNLHWFQQTSHESPRLLIKYASQSMSGIPSRFSGSGSGTDFTLSINSVETEDFGMYFCQQTNSWPYTFGGGTKLEIK
modifications: chimeric IgG1
In turn, B1 returned an IL-6 secreted by FS-4 fibroblasts (ng/ml) at 0.3 ng/ml TNF, 4 µg/ml antibody of 1.6 ng/mL; an IL-6 secreted by FS-4 fibroblasts (ng/ml) at 1.5 ng/ml TNF, 4 µg/ml antibody of 1.96 ng/mL; an IL-6 secreted by FS-4 fibroblasts (ng/ml) at 7.5 ng/ml TNF, 4 µg/ml antibody of 2.16 ng/mL.
